The values below come from patent publication US10500249B2, “Compositions and methods for preventing or treating diseases, conditions, or processes characterized by aberrant fibroblast proliferation and extracellular matrix deposition” (MOERAE MATRIX, INC., priority 2014, dated 2019).

What all share (experiment): Kinase Profiling Assay
Holding throughout (assay type): biochemical
Holding throughout (details): 100 μM

One assay deals with Ret (V804L) (h) (Homo sapiens, UniProt P07949, V804L). The procedure, abridged: (§1)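 Each kinase activity was measured in duplicate. Phosphorylation of a positively charged substrate with radiolabeled phosphate from ATP was captured on a negatively charged filter, counted by scintillation and expressed relative to a 100% activity control. MK2 inhibitory peptides were screened for specificity across 266 human kinases.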

For another assay, the target named is T1, Hck (h) activated (Homo sapiens, UniProt P08631).
T1 construct: purchased Millipore
The procedure, abridged:
as §1

The next assay deals with TrkB (h) (Homo sapiens, UniProt Q16620). The procedure, abridged:
as §1

A further assay has as its target T2, Rse (h) (Homo sapiens, UniProt Q06418).
T2 sequence (Q06418 41-890): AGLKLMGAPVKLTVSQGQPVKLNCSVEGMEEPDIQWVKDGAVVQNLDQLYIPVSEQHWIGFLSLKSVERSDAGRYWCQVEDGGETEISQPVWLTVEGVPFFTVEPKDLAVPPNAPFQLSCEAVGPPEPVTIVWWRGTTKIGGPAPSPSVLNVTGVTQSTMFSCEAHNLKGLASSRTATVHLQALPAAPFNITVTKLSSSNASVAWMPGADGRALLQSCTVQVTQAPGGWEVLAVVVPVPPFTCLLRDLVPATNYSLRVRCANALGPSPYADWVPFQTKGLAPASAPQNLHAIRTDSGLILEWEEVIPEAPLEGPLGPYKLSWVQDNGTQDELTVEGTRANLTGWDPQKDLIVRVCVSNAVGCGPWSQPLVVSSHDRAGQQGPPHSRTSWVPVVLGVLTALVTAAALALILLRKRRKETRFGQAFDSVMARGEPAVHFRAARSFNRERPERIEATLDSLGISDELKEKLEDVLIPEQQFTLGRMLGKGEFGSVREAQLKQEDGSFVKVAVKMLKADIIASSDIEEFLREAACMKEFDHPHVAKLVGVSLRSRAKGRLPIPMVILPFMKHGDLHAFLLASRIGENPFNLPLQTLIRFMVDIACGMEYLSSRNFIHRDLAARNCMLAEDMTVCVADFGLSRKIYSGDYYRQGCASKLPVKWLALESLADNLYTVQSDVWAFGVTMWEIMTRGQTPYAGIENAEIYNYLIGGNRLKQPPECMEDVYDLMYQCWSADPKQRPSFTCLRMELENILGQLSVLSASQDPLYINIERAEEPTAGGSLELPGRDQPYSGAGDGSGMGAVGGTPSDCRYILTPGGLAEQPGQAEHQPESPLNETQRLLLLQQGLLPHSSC
The procedure, abridged: as §1

The target in a further assay is T3, IR (h) (Homo sapiens, UniProt P06213).
T3 construct: purchased Millipore
The procedure, abridged:
as §1

In a further assay the target is T4, GRK6 (h) (Homo sapiens, UniProt P43250).
T4 construct: purchased Millipore
The procedure, abridged: as §1

The next assay has as its target T5, NEK11 (h) (Homo sapiens, UniProt Q8NG66).
T5 construct: purchased Millipore
T5 sequence (Q8NG66 1-645): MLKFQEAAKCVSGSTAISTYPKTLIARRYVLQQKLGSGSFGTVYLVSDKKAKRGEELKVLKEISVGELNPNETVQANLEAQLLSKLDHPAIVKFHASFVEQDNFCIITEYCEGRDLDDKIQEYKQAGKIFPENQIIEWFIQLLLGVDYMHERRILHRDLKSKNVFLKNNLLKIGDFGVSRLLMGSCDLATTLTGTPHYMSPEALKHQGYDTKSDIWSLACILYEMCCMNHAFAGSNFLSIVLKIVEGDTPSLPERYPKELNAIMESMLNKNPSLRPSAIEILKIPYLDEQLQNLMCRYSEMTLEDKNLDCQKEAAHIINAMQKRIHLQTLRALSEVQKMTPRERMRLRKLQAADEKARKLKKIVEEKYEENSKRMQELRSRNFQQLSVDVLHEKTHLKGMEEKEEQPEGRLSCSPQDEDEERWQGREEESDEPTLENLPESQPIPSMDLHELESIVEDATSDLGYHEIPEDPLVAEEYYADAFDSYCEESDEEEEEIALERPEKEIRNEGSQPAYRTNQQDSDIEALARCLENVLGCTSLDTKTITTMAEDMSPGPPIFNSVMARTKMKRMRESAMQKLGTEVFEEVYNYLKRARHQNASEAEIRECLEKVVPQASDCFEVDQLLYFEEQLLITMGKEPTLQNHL
The procedure, abridged:
as §1

T4 sequence (P43250 whole entry): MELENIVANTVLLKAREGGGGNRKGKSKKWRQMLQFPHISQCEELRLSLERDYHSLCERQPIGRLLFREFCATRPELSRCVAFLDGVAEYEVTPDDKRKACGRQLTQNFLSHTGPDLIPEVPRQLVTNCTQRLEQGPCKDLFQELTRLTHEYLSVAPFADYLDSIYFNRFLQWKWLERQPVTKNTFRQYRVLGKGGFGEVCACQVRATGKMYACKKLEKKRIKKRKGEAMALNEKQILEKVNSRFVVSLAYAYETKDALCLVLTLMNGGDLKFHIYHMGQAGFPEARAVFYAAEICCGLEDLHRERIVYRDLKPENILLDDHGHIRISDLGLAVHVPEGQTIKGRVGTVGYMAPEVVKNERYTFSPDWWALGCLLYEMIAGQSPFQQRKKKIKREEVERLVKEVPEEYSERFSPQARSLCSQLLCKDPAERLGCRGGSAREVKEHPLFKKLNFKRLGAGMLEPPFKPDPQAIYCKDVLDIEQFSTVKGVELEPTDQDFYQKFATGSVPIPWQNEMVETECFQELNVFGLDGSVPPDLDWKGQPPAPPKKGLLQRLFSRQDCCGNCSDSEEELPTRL
T1 sequence (P08631 whole entry): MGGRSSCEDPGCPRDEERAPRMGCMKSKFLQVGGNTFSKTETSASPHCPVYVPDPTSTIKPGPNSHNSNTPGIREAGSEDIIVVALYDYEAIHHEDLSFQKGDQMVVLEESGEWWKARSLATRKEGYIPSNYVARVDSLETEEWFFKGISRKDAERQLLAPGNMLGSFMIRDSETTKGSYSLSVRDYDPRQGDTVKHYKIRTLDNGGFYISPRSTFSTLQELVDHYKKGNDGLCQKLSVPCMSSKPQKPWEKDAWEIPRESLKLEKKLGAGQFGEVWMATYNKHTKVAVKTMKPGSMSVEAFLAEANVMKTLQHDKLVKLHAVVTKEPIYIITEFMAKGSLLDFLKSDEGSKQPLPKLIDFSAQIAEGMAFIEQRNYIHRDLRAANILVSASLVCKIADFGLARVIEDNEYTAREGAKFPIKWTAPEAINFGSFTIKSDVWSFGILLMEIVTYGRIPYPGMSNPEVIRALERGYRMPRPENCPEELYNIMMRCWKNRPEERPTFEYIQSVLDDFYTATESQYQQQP

As for FAKLAARLYRKALARQLGVAA [MMI-0300], the “% activity” value in the assay with Ret (V804L) (h) is 79%; with Hck (h) activated, 82%; in the assay with TrkB (h), 5%; with Rse (h), 88%; with IR (h), 96%; in the assay with GRK6 (h) it was 147%. The “% activity” value in the assay with NEK11 (h) is given as 53%.
Regarding “HRRIKAWLKKIKALARQLGVAA (Mammalian) [MMI-0500]”, the “% activity” value was determined as 20% with Ret (V804L) (h); 67% with Hck (h) activated; 12% in the assay with TrkB (h); 63% with Rse (h); 95% with IR (h); 174% with GRK6 (h). In addition, the “% activity” value in the assay with NEK11 (h) is 2%.
For the sequence “YARAAARQARAKALNRQLGVA (Mammalian) [MMI-0200]”, the “% activity” value came out at 100% with Ret (V804L) (h); 100% with Hck (h) activated; 7% with TrkB (h); 88% in the assay with Rse (h); 90% in the assay with IR (h); 132% with GRK6 (h). Besides, the “% activity” value with NEK11 (h) was 95%.
For KAFAKLAARLYRKALARQLGVAA [MMI-0400], the “% activity” value is recorded as 73% in the assay with Ret (V804L) (h); 81% with Hck (h) activated; 8% with TrkB (h); 89% with Rse (h); 85% in the assay with IR (h); 141% with GRK6 (h). The “% activity” value in the assay with NEK11 (h) was 33%.
